{"source": "patent US11603409B2", "about": "“Humanized DR4 antibody gene having apoptosis-inducing activity and dual-acting chimeric antigen receptor T cell or natural killer cell therapeutic agent using same” (GENEUIN-TECH CO., LTD., priority 2017, dated 2023)", "molecules": {"B1": {"name": "secretory humanized DR4 scFv antibody recombinant protein: Secreted humanized anti-DR4 scFv (SEQ ID NO: 1) with isoleucine zipper, Flag and His6 tags, expressed from pCMVFL-srkDR4 in HEK293 cells (protein)", "scFv": "EVQLVESGGGLVQPGGSLRLSCSASGFTFSSYSMQWVRQAPGKGLEYVAGIRSDGRYTNYGAAVKGRATISRDNSKNTVYLQMNSLRAEDTAVYYCAKGAYGYCGSTCAPYLGQIDAWGQGTLVTVSSGSTSGSGKPGSGEGSTKGSYELTQPPSVSVSPGQTVRITCSGGRYTYGWFQQKPGQAPVTVIYGNDKRPSNIPSRFSGSTSGSTVTLTISGVQAEDEADYYCGGADFSAGLFGGGTKLTVL", "modifications": "left off: small tags and cut ends; a dimerising Fc or GST"}}, "key": {"[1]": {"system": "HeLa cells, a cervical cancer cell line expressing DR4", "assay": "Apoptosis induction by secretory DR4 scFv protein, MTT method, HeLa cells", "type": "cell-based", "conditions": "low and high concentrations, FIG. 4(B)", "experimental": "(§1) To this end, apoptosis-inducing effects of secretory humanized DR4 scFv antibody recombinant protein were analyzed using HeLa cells, a cervical cancer cell line expressing DR4 on the cell surface, and HCT-116 cells, a colon cancer cell line. […] Each of these three cells was inoculated in a culture dish and cultured overnight, and then the secretory humanized DR4 scFv antibody recombinant protein was added to the culture medium, and the degree of death of the cells during culturing was determined by MTT method (Cyto X™ Cell viability assay kit, LPS solution, Korea)."}, "[2]": {"system": "HCT-116 cells, a colon cancer cell line", "assay": "Apoptosis induction by secretory DR4 scFv protein, MTT method, HCT-116 cells", "type": "cell-based", "conditions": "HCT-116 cells expressing DR4; low and high concentrations; FIG. 4(C)", "experimental": "as §1"}, "[3]": {"system": "HEK293 cells which do not express DR4", "assay": "Apoptosis induction by secretory DR4 scFv protein, MTT method, HEK293 control cells", "type": "cell-based, human", "conditions": "HEK293 cells not expressing DR4; protein added to culture medium at low and high concentrations; FIG. 4(A)", "experimental": "as §1"}}}
{"molecule": "B1", "values": [{"measurement": "apoptosis effect (degree of death of the cells by MTT method)", "setting": "[1]", "value": "apoptosis increased in proportion to the concentration"}, {"measurement": "apoptosis effect (degree of death of the cells by MTT method)", "setting": "[2]", "value": "apoptosis increased in proportion to the concentration"}, {"measurement": "apoptosis effect (degree of death of the cells by MTT method)", "setting": "[3]", "value": "not observed"}]}
